Test: soluble fraction after stress (log2 fold change); higher = more stays soluble; pooled small domains, quantitative proteomics
Conditions: stress: 75 degC
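Note: 20 min heating vs room temperature control held 20 min.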

| Sequence | soluble fraction (log2) |
| --- | --- |
| HMTYIQSNLKFLRNKMNISQEELAKRLFVTHQTVSNHENGKSQPNFEMIEKYASFFNVPFEDLIHKDLSL | -0.68 |
| HMTYNIPEHYQTIDVKEYVRKLVSDGDSDQIGRVEMELTEFETRNLFPVLKVLIYIIDTMRK | -3 |
| HMTYQTVRYGSTGSAVRQLQSALNQKGYQLSEDGIFGAKTRAAVRDYQKKNGLLLDGIAGSQTWNHLMS | -0.179 |
| HMTYSSESVRYRIKSLIDNETIDEILSDDKIVNILKSQGIDVARRTVAKYREAMGLASSIQRRREKKSA | -0.707 |
| HMVAGGTVSRKLSIETGLPKRKSLIGSWLDQNSVWHNIISVRHRNGYGDGVNYGFYLRSLLTSEGNLAW | -0.0583 |
| HMVAGHLQTKKGYYYIVLNMRTDTGARKTKWIATGIPEGGKKNLKQAEELLAKTRYTYEDMVI | -2.52 |
| HMVAPKTEEQQKMFLESIVTKRQAETLIEKYPNIVQDIIDGTDNVDLANLKGIGEHTYNLIKEKVLSNY | 0.546 |
| HMVAPPILNITTHIFAEEADLRMVMINGVTRREGDSLGENHRLLEITERGLILIFHNKQYTLDV | -4.32 |
| HMVAQEVPYSTFVMRLDRNEVDAVKIIDGNEIEGTFKSPNGDLVQFKTLIPYQDTELMPLLKQKGVRISGS | 0.427 |
| HMVARPVLQIGSTGADVTAIQARLGVSQTGYFGVLTAAAVTNFQRSNGIAASGKVGATTWAKLMQSA | -2.37 |
| HMVAVSQEEATKMALERVSGASAQDIRIQLEFDDGIQKYEGDIIYNGREYEFEIDANTGTFLEWSEERA | -0.176 |
| HMVDETDVPTFTDMTLEEAQNEAKQRNLKLEITESPSDKEKDTILEQDPEPGKTVASGSTVKLTVSNGEE | -0.157 |
| HMVDFHAAYSILRIAPGASWQEIQAAYEKLNDAWREDRYPQVPFWNEKAAFKRREVEQAYEKLRKFHALRH | -2.43 |
| HMVDFVNVVVPVKANYGGEAVVEFLDERLSEFGTEGIYRIELQGETMENPSPDYSQLKAKYHISEIVDRT | 0.0718 |
| HMVDKDFKPLYASLERLDSTSIIEILDSNRIDYRIDQRSGALLVDADQIHQARLSLASAGMPA | -0.263 |
| HMVDLANIDPIASSIKLNGAEADASFNTLEDRRVSVSGSFEENKNYTMEYTFKDYAGGSVTGTLDFKTLA | 0.36 |
| HMVDLAPTEEIIKNLPNNSRSLLIPTLQKIQNAYRYLPSPAMELLSEFLNVTRAEIYGVISFYPSLL | 0.173 |
| HMVDLLDETLIEFYAFANNLIKDLETNSEKYGGMSQFEKELIFNEQITQYQRKLKIDLQDEVG | -1.8 |
| HMVDPRLRSLTPQERRILEHIAEGLTNRQIAEDMFLAEKTVKNYVTSILDKLGMDSRTQAAVYAATHPT | -0.483 |
| HMVDSTDLIPLLIKVSREKQGNKKLNWGEWLKIPENIYLKQINENIARKVFEDTNDLIDEAVNYINRKRRN | -0.963 |
| HMVDTEVFSRLLRKVLAGDVTSAIRILEELIVGGRELSQFVGDFTWYMRNLLLVKTSDNPEEA | -0.463 |
| HMVDYYEILGVSPDASRKDIENAWRKKMREAHPDMGGSEDKAQLLNEAHKVLSDESARAEYDASR | 0.181 |
| HMVELPDLIGKSKRLAFTQLEISGLKIGKIIYEPDLAKDAVLKILYNGKIVKAGEQLPRFATVDLVLG | -2.11 |
| HMVEMIGLQMVGKSGIASTVLRPSGKVRIDGVVYDAVSEDGFIEKGQAVKVLRYETGQVYVEKL | -0.727 |

| Sequence | soluble fraction (log2) |
| --- | --- |
| HMVEPIEESISQLSLLLQSLYEDGKSEVSFEELIRSDRSRVSLFLALLFMAQRGNVYLEQEELFGDLRVKN | 0.0329 |
| HMVEREYRLEVPPEAEGKRLDQFLVNQPVQLSRSQVQHLIQNGLVLVNAKTRRSSYRVHTGDIIEMQVPA | 0.121 |
| HMVERQVTVPNLTGLGVADAQRLAQSMELDIEVLGEQESTDARPGAVLQQTPGAGTRAAAGSVVSVLV | 0.201 |
| HMVEVPEQLRDLLERSIEDLAELSVRSRNSLQKENIQTLGDLVQRTEEEMLGIENFGKKSLTEIAAFL | -0.217 |
| HMVEYFDDENLDAFIGRESDSYTEKEIEQFREILYTMNQKEVADWNRSLTIRGINIPNDLKDEMIMMI | -0.225 |
| HMVEYIENINLSEKQKFIAHEILKEIRGRAIFLRDVGLDYLNLSRKAGTLSGGEAQRIRLATQIGSA | 0.198 |
| HMVFKSAQEGLDFYSKQLNDVDATLGRIRRGEESGNGLYGSNRVKNLEEQRKKLDSFVTAYRNAVNAT | 0.0212 |
| HMVFTEEEMLEKIKEYLSTNSYINRRAMETLFNLRQSTALKWLGHFTEIGVLRKEGERNYPVYFLNN | -0.972 |
| HMVGADTISDLISQRGRMIGDKPITNAVIKSGSEFSTINALSKAIASGDARTNDVEGMKPVFR | -0.126 |
| HMVGKGASIILDRVNLPQYLEKFNEDGFDTIESLKNLNEIDLKEMGVKKGHIRVILNYLHEEY | -0.421 |
| HMVGLKWYDTGNKKPPIGTEYKNTELSEALKGHDRKEFTWKELDVLGVNITDKEQYIVVGENYYTQV | 0.0506 |
| HMVGPAHIGLAVAKDQLPHWERHLTANGVEIEGRMRWDHGGESIYFRDPDAHLLELVTPGIWAN | 0.0383 |
| HMVGVDMTVKEEVGKEGVTFTDLRPAGKVEIGNDIYDAVSNTGAFIQKGEKVKIIKYQAGQVYVEKLV | 0.00838 |
| HMVIANADVRAKFSKGKDSFVKYYFKEKVLKDGFTEEVKNNIVQALFYLQIVTRIDGESGVLIIDY | 0.123 |
| HMVIDETVLIDLFERLAEDDRPQRVAFRYILALVLLRKRTLQLIGREDEDDGEIWLLRFKGTDGEPIRV | -0.463 |
| HMVIGKHSGSHTLVNDLAKRGITLDKEESATLLEMVRKAAVGLHRSISSDELYGLYKDMKSGQDPFEDS | 0.139 |
| HMVINVKEILERIKLVKGFHTQIEIARFLGVSKGTISNWLARNSVDFPLVISKLDGVDLNWLFTGIGMPQ | -3.77 |
| HMVISNDEFEDYLNRATEQLVSELSSGKNPRDAVHDLALTFADQHNKSYDAYQRMADSLEARMHTL | 0.0871 |
| HMVITEQTVTVKYLYEDDTEAAPEHSETHKTGETFEIESPKIDGFTPDYELITGTIANDDLVYIVRYKTTP | -0.487 |
| HMVITQVSTTQTDTTFQYHKVKPKETLFSISRLYEVSIDEIKTINPALNSRELMAGELLKLPIK | -1.4 |
| HMVKGIVPNLIGKTQDEAKQMAEEYGFSIGTVSEKASDKPKGTVIEQSPKAGAKASGVTSINIVVSDGS | -0.121 |
| HMVKKYEKVKEYLLERILDGTYVPDLPIPPERELASLLDVNRMTVRRAVEELMYDGYLIRKKGSGTYLTR | -1.6 |
| HMVKLSVGDIVQFAGGPHYVSSSAAKPASSPTAGPAKVTMIYQGAKHPYHIVHTTSASTVWGWVDADKVVK | 0.0767 |
| HMVKNLRKLREELGLTQQRLAELTGISKSRIYSYESLDREPDIAGLITLADFFSVSIDYLVGK | -2.66 |

| Sequence | soluble fraction (log2) |
| --- | --- |
| HMVKPKIILADIGMITETDVTLAKASQAVLIAFNVKPSKEAKKLAEDENIKISTYNIIYEVLDFVKKSMSG | 0.304 |
| HMVLALRGIVQGGAEPLVILSDGRTSQSLAVGERFLAYEVVEIGRTGVRLRGPEGEIWLAMASF | -1.2 |
| HMVLANLQAAEQGDLGIKEGEKLTILQTRPDGWWTARNANGETGLVPK | 0.186 |
| HMVLFDLSEREKEVLKLLADGNSYKMIASRLEITYFTVNAHLKKIYEKLQVHSASEAVSVALRNSL | -1.19 |
| HMVLIQNEDVKDISNYPLLSSVPVFDVFNNKMIIPTFNKDSFNPLIYNFNFNSKRRLIYRVDNTNYLIVIK | 0.0494 |
| HMVLMPIDALRGSSSSSEMRIAAVKFSPSKGWYFSLQERSDEGSSYYEQKVASDGSVSERVKVR | -0.58 |
| HMVLNVMIEEEVHREIIAAISKLPKERRRVVELSMAGFSQEEIAEKMAISVNTVKTIKLRAYRVLRERLKG | -3.78 |
| HMVLPELRLQGLPTAVLRLINRATALADDYRRLMEIAEDGRIDEWEAPEFERISENIQRVIAAGFEVL | 0.0637 |
| HMVLQHHTATKALSYHTSASASAAVKGSFARGDSVQVVQGGSQTADGAKWHKVKVGSSYYYAAAEHLTP | ≥ 1.04 |
| HMVLTYYSVLGVKTDATTEEIKSTYKQLAIRNHPDRGGSEEVMKMINLAAEILSDPKSRKEYDLSLDA | -2.06 |
| HMVLVLPGEMIHVQVIDEGKEMGQGVGYLDDGTMVVVENGLRHIGRAIDVQVTKVLQTNAGRMIFGQPIL | -1.71 |
| HMVMAELRISVDRLQIGNYIKLPLSWRDHPFLLSSFMIKKEEQIQLIRQLRLKHVFIIPEKSDAPPKPA | -4.2 |
| HMVMNYKKIGKKIADRRILLGITQEELAEKVDSSANYISNIETGIKSGSLIFYIKVANELKLSLDFLFSDE | -3.09 |
| HMVMPTGRVRYYDAEKGFGFLSKDSGGDDVYVRSSALPAGVTSLKRGQKVEFGIIDGKRGEQALSVHLL | -0.202 |
| HMVMTTVPEVLGMDIRTAASMLTGKNLKYDYDLVESDKPKDEVIEQDQAKGTEVPEGTVVKLKVSKGPA | 0.143 |
| HMVMTTVPEVLGMDISKAASLLTGKNLDYDYDLVESDKPKDQVIEQDVVKGTEVPEGTVIHLKVSKGPA | 0.258 |
| HMVMVVDVLKALSNNSSDKFFNTSISNAIKAQEDSQEDFVTLFGIEYEKLSPNNGLAVIFTSQ | 0.865 |
| HMVNDDTIAATEAEILALLADKHRHHITELNSIRRPYEQIDAALSSLINEEKIFQEDGMLFV | 0.543 |
| HMVNGEFIDRIKVILQENNATRKKDRLTKTRMYQLLQEEGYEGSYSAFTYQVRIIEEELGINNK | -2.31 |
| HMVNSIQIHKKLRLDKRAGSDNWYARLTLPNGKRLVKTTKTEDIETAKEVALRLYYEVDARIQNKLPAT | -1.72 |
| HMVPADVQHLRDIVDTMTEKQQLVYKLHVLEGYTFTEIAKLMGTSIPNVKKHYDKAILFIKNNF | -1.79 |
| HMVPEEEATKISVQNVGASDYNFTVKGVQANDPTLTLVRGKTYEFDVTSLGHPFWIKTQKVTGSSSQY | 0.354 |
